Assays:
PD-L1-his = molecular target: T1, PD-L1-his (human, UniProt Q9NZQ7 19-238, limits assumed); experiment: BLI, Fortebio Octet RED96, antibody on AHC sensor, PD-L1-his in solution
T1 construct: also called human PD-L1 protein

[1] = molecular target: T2, TIGIT-his (extracellular region of human TIGIT protein fused with his) (human, UniProt Q495A1 22-141); experiment: BLI, Fortebio Octet RED96, antibody on AHC sensor, TIGIT-his in solution
T2 construct: also called antigen TIGIT-his
T2 sequence: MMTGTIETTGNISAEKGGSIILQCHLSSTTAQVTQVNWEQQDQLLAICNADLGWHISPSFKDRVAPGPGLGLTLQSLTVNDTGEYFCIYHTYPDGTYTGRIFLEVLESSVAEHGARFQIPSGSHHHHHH

[2] = molecular target: T3, human PD-L1 on hPD-L1-CHO-K1 cells (human, UniProt Q9NZQ7 19-290); experiment: FACS on hPD-L1-CHO-K1 cells
T3 construct: whole, on cells; The making of this cell line is not described

[3] = molecular target: T3, human PD-L1 on hPD-L1-CHO-K1 cells; experiment: FACS, blocking of PD-1-mFc binding to hPD-L1-CHO-K1 cells (competitor PD-1-mFc)
[4] = molecular target: T4, TIGIT-mFc (extracellular region of human TIGIT with mIgG1-Fc tag) (human); experiment: FACS, blocking of TIGIT-mFc binding to cells (TIGIT/CD155; cells printed as hTIGIT-CHO-K1)
T4 construct: A bought TIGIT-mFc (Acro Biosystems TIT-H5253) is used for immunization; also called recombinant humanized TIGIT-mFc
T4 chain: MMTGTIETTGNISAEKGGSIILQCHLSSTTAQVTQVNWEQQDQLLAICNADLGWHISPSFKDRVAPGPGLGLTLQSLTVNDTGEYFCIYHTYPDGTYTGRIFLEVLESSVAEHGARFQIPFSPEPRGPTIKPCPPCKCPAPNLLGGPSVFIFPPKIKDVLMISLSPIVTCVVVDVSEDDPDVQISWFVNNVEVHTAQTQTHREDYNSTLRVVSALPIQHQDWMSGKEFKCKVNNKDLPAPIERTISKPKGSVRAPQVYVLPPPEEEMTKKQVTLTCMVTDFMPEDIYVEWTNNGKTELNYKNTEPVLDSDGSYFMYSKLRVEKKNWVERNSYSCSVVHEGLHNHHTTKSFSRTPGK

[5] = molecular target: T5, full-length TIGIT on hTIGIT-CHO-K1 cells (human, UniProt Q495A1 22-244); experiment: FACS on hTIGIT-CHO-K1 cells
T5 construct: CHO-K1 cells stably transfected with pTargeT-TIGIT; also called TIGIT on cell surface
T5 sequence: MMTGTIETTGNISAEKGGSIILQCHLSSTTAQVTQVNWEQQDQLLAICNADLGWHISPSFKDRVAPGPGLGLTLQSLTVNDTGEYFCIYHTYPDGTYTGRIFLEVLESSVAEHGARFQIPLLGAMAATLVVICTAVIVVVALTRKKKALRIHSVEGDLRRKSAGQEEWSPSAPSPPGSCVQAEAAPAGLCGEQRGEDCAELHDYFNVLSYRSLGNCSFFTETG

T1 sequence (Q9NZQ7 19-238 limits assumed): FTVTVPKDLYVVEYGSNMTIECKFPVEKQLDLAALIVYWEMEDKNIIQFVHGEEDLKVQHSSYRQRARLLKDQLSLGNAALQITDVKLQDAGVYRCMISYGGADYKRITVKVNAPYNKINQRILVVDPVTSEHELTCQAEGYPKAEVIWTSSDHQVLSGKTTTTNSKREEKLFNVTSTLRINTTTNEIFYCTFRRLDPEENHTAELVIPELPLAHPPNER
T3 sequence (Q9NZQ7 19-290): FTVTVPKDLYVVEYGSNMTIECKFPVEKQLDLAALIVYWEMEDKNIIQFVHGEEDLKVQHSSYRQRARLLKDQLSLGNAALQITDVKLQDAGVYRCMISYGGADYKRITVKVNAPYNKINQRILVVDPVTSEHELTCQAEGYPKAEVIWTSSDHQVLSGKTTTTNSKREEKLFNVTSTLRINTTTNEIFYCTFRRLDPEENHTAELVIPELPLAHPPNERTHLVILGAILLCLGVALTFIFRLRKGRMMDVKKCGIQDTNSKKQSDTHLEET

- Kd (PD-L1-his): 1.32 nM
- koff (PD-L1-his): 0.000273 s⁻¹
- kon (PD-L1-his): 207000 M⁻¹ s⁻¹
- Kd [1]: 3.06 nM
- koff [1]: 0.00333 s⁻¹
- kon [1]: 1.09e+06 M⁻¹ s⁻¹
- EC50 [2]: 1.77 nM
- IC50 [3]: 3.19 nM
- IC50 [4]: 4.08 nM
- EC50 [5]: 1.3 nM
B1: HuPL721-T2353-ScFab (bispecific antibody, human IgG4 S228P, kappa)
chain 1: DIQMTQSPSSLSASVGDRVTITCRTSQDIGNSLRWFQQKPGKAPKLLIHGATNLANGVPSRFSGSGSGTDFTLTISSLQPEDFATYYCLQHNEYPLTFGCGTKLEIKRTVAAPSVFIFPPSDEQLKSGTASVVCLLNNFYPREAKVQWKVDNALQSGNSQESVTEQDSKDSTYSLSSTLTLSKADYEKHKVYACEVTHQGLSSPVTKSFNRGECGGGGSGGGGSGGGGSGGGGSGGGGSGGGGSGGGGSGGGGSEVQLVESGGGLVQPGGSLRLSCAASGFTFSDHWMSWVRQAPGKCMEWIGNIQYDGSYTNYAPSLKNRFTISRDNAKNSLYLQMNSLRAEDTATYYCTRGHFRITMASMGASASVYWGQGTMVTVSSASTKGPSVFPLAPCSRSTSESTAALGCLVKDYFPEPVTVSWNSGALTSGVHTFPAVLQSSGLYSLSSVVTVPSSSLGTKTYTCNVDHKPSNTKVDKRVESKYGPPCPPCPAPEFLGGPSVFLFPPKPKDTLMISRTPEVTCVVVDVSQEDPEVQFNWYVDGVEVHNAKTKPREEQFNSTYRVVSVLTVLHQDWLNGKEYKCKVSNKGLPSSIEKTISKAKGQPREPQVYTLPPCQEEMTKNQVSLWCLVKGFYPSDIAVEWESNGQPENNYKTTPPVLDSDGSFFLYSRLTVDKSRWQEGNVFSCSVMHEALHNHYTQKSLSLSLGK
chain 2: not shown
notes: each is light chain - GGGGS linker - heavy chain, IgG4

From patent publication US20240262915A1 (NANJING SANHOME PHARMACEUTICAL, published 2024)
